Data from patent publication US20160319032A1.

Tests used:
[1] = molecular target: mouse αVβ6 on cells (mouse) (UniProt P43406); assay: FACS, K562 cells expressing mouse αVβ6 (parental K562: 33)
[2] = molecular target: mouse αVβ6 on cells (mouse) (UniProt P43406); assay: FACS, purified mAb, transfected HEK-293 (parental: 74)
[3] = molecular target: cynomolgus β6 on transfected HEK-293 cells (cynomolgus); assay: FACS, purified mAb, transfected HEK-293 (parental: 2)

Sequence of mouse αVβ6 on cells (mouse) (P43406 31-1044, chain 1 of 2): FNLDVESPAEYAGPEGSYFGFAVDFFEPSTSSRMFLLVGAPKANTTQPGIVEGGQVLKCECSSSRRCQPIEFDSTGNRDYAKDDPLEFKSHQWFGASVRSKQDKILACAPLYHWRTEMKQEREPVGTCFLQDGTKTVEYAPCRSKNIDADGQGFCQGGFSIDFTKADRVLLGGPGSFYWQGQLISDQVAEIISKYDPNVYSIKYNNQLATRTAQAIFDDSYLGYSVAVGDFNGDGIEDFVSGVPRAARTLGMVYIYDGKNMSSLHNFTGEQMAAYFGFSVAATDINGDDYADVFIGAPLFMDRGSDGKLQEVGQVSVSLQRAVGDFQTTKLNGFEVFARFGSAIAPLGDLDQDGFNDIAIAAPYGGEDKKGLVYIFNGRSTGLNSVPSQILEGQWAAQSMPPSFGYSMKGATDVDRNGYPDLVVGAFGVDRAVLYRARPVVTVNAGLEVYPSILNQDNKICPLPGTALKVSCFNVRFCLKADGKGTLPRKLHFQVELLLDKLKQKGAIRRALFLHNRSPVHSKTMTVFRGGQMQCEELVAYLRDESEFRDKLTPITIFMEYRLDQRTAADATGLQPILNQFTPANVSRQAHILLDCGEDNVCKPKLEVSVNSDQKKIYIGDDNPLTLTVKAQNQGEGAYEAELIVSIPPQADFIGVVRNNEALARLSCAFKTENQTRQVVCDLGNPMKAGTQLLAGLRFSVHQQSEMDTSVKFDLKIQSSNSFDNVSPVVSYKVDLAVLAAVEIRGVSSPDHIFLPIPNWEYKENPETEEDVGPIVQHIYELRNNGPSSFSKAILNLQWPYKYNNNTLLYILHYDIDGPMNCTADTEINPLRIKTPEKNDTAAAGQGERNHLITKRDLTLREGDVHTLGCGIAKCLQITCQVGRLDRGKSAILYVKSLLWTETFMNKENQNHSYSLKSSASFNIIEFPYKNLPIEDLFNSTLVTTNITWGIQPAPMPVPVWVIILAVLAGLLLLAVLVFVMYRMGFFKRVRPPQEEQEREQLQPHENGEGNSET
Sequence of mouse αVβ6 on cells (mouse) (Q9Z0T9 22-787, chain 2 of 2, further chain): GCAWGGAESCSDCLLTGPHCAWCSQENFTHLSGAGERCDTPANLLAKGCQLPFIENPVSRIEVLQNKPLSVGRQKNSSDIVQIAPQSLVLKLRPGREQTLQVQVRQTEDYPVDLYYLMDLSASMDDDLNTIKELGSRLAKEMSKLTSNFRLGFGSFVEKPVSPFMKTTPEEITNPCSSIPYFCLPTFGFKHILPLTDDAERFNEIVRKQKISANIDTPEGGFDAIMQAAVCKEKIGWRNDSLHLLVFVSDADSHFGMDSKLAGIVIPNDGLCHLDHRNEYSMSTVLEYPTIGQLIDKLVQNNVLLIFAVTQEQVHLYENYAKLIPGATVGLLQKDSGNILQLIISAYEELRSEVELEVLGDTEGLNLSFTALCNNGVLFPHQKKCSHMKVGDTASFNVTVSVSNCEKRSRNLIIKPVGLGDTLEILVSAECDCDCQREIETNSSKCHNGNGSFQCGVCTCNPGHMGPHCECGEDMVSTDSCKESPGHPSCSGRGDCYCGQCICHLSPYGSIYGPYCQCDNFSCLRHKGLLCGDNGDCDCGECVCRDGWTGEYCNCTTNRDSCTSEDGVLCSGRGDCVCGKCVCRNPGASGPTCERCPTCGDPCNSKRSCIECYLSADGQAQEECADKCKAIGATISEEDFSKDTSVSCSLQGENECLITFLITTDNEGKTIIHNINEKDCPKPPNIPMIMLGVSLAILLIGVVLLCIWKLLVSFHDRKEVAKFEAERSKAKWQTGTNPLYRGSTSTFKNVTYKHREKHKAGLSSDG

Row | Geometric Mean Shift (arbitrary units) [1] | percent of cells shifted [2] [%] | percent of cells shifted [3] [%] | Binder
1 | 160 | 63 | – | sc 264 (antibody, V domains shown) VH: QVQLQESGPGLVKPSQTLSLTCTVSGGSISSGGYYWSWIRQHPGKGLEWIGYIYYSGRTYNNPSLKSRVTISVDTSKNQFSLKLSSVTAADTAVYYCARVATGRGDYHFYAMDVWGQGTTVTVSS VL: SYELTQPSSVSVSPGQTARITCSGDVLAKKSARWFHQKPGQAPVLVIYKDSERPSGIPERFSGSSSGTTVTLTISGAQVEDEAAYYCYSAADNNLVFGGGTKLTVL
2 | – | – | 10 | sc 133 (antibody, V domains shown) VH: QVQLVQSGAEVKKPGASVKVSCKASGYTFTGYYMHWVRQAPGQGLEWMGWINPKSGDTNYAQKFQGRVTLTRDTSTSTAYMELSRLRSDDTAVYYCARRLDVWGQGTTVTVSS VL: QSVLTQPPSVSAAPGQKVTISCSGSSSNIGNNYVSWYQQLPGTAPKLLIYDNNKRPSGIPDRFSGSKSGTSATLGITGLQTGDEADYYCGTWNSSLSAGYVFGTGTKVTV
